How the values were obtained:
[1] = target: prothrombin variant S91A/Y93A (human) (UniProt P00734); test: SPR, calculated from Kd
[2] = target: kringle-2 of human prothrombin (amino acids 156-271) (human) (UniProt P00734); test: SPR, calculated from Kd
[3] = target: human prothrombin wild-type (human) (UniProt P00734); test: SPR, calculated from Kd
[4] = target: human prothrombin wild-type (human) (UniProt P00734); test: SPR, calculated from Kd; prothrombin with 200 µM argatroban
[5] = target: prothrombin variant S91A/Y93A (human) (UniProt P00734); test: SPR, AHP immobilised, HEPES buffer, 25 C
[6] = target: kringle-2 of human prothrombin (amino acids 156-271) (human) (UniProt P00734); test: SPR, AHP immobilised, HEPES buffer, 25 C
[7] = target: human prothrombin wild-type (human) (UniProt P00734); test: SPR, AHP immobilised, HEPES buffer, 25 C
[8] = target: prothrombin variant S91A/Y93A (human) (UniProt P00734); test: ELISA, antigen immobilised, Hill fit
[9] = target: kringle-2 of human prothrombin (amino acids 156-271) (human) (UniProt P00734); test: ELISA, antigen immobilised, Hill fit
[10] = target: human prothrombin wild-type (human) (UniProt P00734); test: ELISA, antigen immobilised, Hill fit
[11] = target: human prothrombin wild-type (human) (UniProt P00734); test: SPR, AHP immobilised; prothrombin with 200 µM argatroban (open form)

ΔG [1]: -10.5 kcal/mol
ΔG [2]: -10.3 kcal/mol
ΔG [3]: -10.1 kcal/mol
ΔG [4]: -10.1 kcal/mol
Kd [5]: 0.0195 µM
koff [5]: 0.000123 s⁻¹
kon [5]: 6320 M⁻¹ s⁻¹
Kd [6]: 0.0278 µM
koff [6]: 0.000128 s⁻¹
kon [6]: 4600 M⁻¹ s⁻¹
Kd [7]: 0.0383 µM
koff [7]: 0.000136 s⁻¹
kon [7]: 3540 M⁻¹ s⁻¹
EC50 [8]: 0.185 µg/mL
EC50 [9]: 0.249 µg/mL
EC50 [10]: 0.195 µg/mL
Kd [11]: 0.0374 µM
koff [11]: 0.000122 s⁻¹
kon [11]: 3270 M⁻¹ s⁻¹
Substance: Antibody AHP (Prolytix AHP-5013)

Reference: patent US20250163181A1
